Results published in patent US20050287150A1 (UNIVERSITY OF MASSACHUSETTS, published 2005).

Columns and labels:
C. difficile toxin A [1] = molecular target: T1, C. difficile toxin A (Clostridium difficile, UniProt P16154 1-2710); test: ELISA, 1 ug/ml Toxin A coat, O.D. 405 nm, four-parameter fit
C. difficile toxin A [2] = molecular target: T1, C. difficile toxin A; test: SPR (Biacore), antibody on protein A-coated chip, toxin A flowed over
[3] = molecular target: toxin A subfragment amino acids 660-920 (Clostridium difficile, UniProt P16154 660-920); test: western blot on toxin A subfragments
[4] = molecular target: toxin A subfragment amino acids 660-807 (Clostridium difficile, UniProt P16154 660-807); test: western blot on toxin A subfragments
[5] = molecular target: toxin A subfragment amino acids 1-415 (Clostridium difficile, UniProt P16154 1-415); test: western blot on toxin A subfragments
[6] = molecular target: toxin A subfragment amino acids 1-290 (Clostridium difficile, UniProt P16154 1-290); test: western blot on toxin A subfragments
[7] = molecular target: toxin A subfragment amino acids 1-165 (Clostridium difficile, UniProt P16154 1-165); test: western blot on toxin A subfragments
C. difficile toxin A [8] = molecular target: T1, C. difficile toxin A; test: ELISA, 1 ug/ml Toxin A coat, O.D. 405 nm

B1: human monoclonal antibody produced by hybridoma clone 3D8 (antibody, V domains shown)
VH: QVQLVESGGGVVQPGRSLRLSCAASGFSFSNYGMHWVRQAPGKGLEWVALIWYDGSNEDYTDSVKGRFTISRDNSKNTLYLQMNSLRAEDTAVYYCARWGMVRGVIDVFDIWGQGTVVTVSS
VL: DIQMTQSPSSVSASVGDRVTITCRASQGISSWLAWYQHKPGKAPKLLIYAASSLQSGVPSRFSGSGSGTDFTLTISSLQPEDFATYYCQQANSFPWTFGQGTKVEIK
notes: also called HuMAb 3D8
A (lower asymptote of the four-parameter fit) (C. difficile toxin A [1]): 0.173 O.D. 405 nm
D (upper asymptote of the four-parameter fit) (C. difficile toxin A [1]): 3.66 O.D. 405 nm
EC50 (C. difficile toxin A [1]): 4 ng/mL
Kd (C. difficile toxin A [2]): 1.46 nM

B2: human monoclonal antibody produced by hybridoma clone 33.3H2 (antibody, V domains shown)
VH: QVQLVESGGGVVQPGRSLRLSCAASGFTFNKYGMHWVRQAPGKGLEWVAVIWYDGTNKYYADSMKGRFTISRDNSKNMLYLQMNSLRAEDTAVYYCARDPPTANYWGQGTLVTVSS
VL: DIQMTQSPSSLSASVGDRVTITCRASQGISSWLAWYQQKPEKAPKSLIYAASSLQSGVPSRFSGSGSGTDFTLTISSLQPEDFATYYCQQYKSYPVTFGGGTKVEIK
binding result [3]: no binding
binding result [4]: no binding
A (lower asymptote of the four-parameter fit) (C. difficile toxin A [1]): 0.172 O.D. 405 nm
D (upper asymptote of the four-parameter fit) (C. difficile toxin A [1]): 3.7 O.D. 405 nm
EC50 (C. difficile toxin A [1]): 5 ng/mL

B3: human monoclonal antibody produced by hybridoma clone 1B11 (antibody, V domains shown)
VH: QMQLVESGGGVVQPGRSLRLSCEASGFSFNSYGMHWVRQAPGKGLEWVSVIWASGNKKYYIESVEGRFTISRDNSKNTLYLQMNSLRAEDTAVYYCARANFDYWGQGTLVTVSS
VL: EIVLTQSPATLSLSPGERATLSCRASQSVSSYLAWYQQKPGQAPRLLIYDASNRATGIPARFSGSGSGTDFTLTISSLEPEDFAVYYCQQRSNWSQFTFGPGTKVDIK
notes: also called HuMAb 1B11
binding result [5]: no binding
binding result [6]: no binding
binding result [7]: no binding
A (lower asymptote of the four-parameter fit) (C. difficile toxin A [1]): 0.203 O.D. 405 nm
D (upper asymptote of the four-parameter fit) (C. difficile toxin A [1]): 3.58 O.D. 405 nm
EC50 (C. difficile toxin A [1]): 2 ng/mL
Kd (C. difficile toxin A [2]): 0.738 nM
EC50 (read off the curve) (C. difficile toxin A [8]): ~2 ng/mL
